Reference: the Immune Epitope Database (IEDB)

These sequences were tested against HLA-A*02:01 (assay: IEDB peptide-MHC binding, purified MHC/direct/fluorescence; filed as Kd, often an IC50 or EC50 that approximates it; ≥ and ≤ were set here for values at or beyond the usual limits of such assays). Conditions: source organism: Human immunodeficiency virus 1.

KSLFNTIATL and KSLFNTIATLY are the same in Kd: 5 nM for the first, 5 nM for the second.

KSLFNTIAVL and KSLFNTIAVLY are the same in Kd: 5 nM for the first, 5 nM for the second.

KSLFNTVATL and KSLFNTVATLY are the same in Kd: 5 nM for the first, 5 nM for the second.

KSLFNTVAVL and KSLYNTIATL are the same in Kd: 5 nM for the first, 5 nM for the second.

First: KSLYNTIATLY
Second: KSLYNTIAVL
The Kd of the first is 4-fold higher: 20 nM for the first, 5 nM for the second. The second binds more tightly here.

Compared with KSLYNTVATL, KSLYNTVATLY is 2-fold lower in Kd: 10 nM for the first, 5 nM for the second. The second binds more tightly here.

KSLYNTVAVL and KSLYNTVAVLY are the same in Kd: 5 nM for the first, 5 nM for the second.

RSLFNTIATLY and RSLFNTIAVL are the same in Kd: 5 nM for the first, 5 nM for the second.

RSLFNTIAVLY and RSLFNTVATL are the same in Kd: 5 nM for the first, 5 nM for the second.

Compared with RSLFNTVAVL, RSLFNTVAVLY is 2-fold lower in Kd: 10 nM for the first, 5 nM for the second. The second binds more tightly here.

First: RSLYNTIATL
Second: RSLYNTIATLY
The Kd of the first is 4-fold lower: 10 nM for the first, 40 nM for the second. The first binds more tightly here.

RSLYNTIAVL and RSLYNTIAVLY are the same in Kd: 5 nM for the first, 5 nM for the second.

RSLYNTVATL and RSLYNTVATLY are the same in Kd: 10 nM for the first, 10 nM for the second.

Compared with RSLYNTVAVL, RSLYNTVAVLY is 2-fold higher in Kd: 5 nM for the first, 10 nM for the second.

SLFNTIATLY and SLFNTIAVLY are the same in Kd: 5 nM for the first, 5 nM for the second.

SLFNTVATLY and SLFNTVAVLY are the same in Kd: 5 nM for the first, 5 nM for the second.

SLYNTIATLY and SLYNTIAVLY are the same in Kd: 5 nM for the first, 5 nM for the second.

Sequence SLYNTVAVLY has a Kd of 5 nM.
